Laboratory results published in article PMC4115806 (2014).

Target: T1, Activated protein C (Homo sapiens, UniProt P04070)
T1 chain 1: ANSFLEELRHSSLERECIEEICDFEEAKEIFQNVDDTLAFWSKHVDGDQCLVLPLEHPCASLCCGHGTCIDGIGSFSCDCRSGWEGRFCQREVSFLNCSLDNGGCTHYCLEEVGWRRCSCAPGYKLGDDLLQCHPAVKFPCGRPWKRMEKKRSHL
T1 chain 2: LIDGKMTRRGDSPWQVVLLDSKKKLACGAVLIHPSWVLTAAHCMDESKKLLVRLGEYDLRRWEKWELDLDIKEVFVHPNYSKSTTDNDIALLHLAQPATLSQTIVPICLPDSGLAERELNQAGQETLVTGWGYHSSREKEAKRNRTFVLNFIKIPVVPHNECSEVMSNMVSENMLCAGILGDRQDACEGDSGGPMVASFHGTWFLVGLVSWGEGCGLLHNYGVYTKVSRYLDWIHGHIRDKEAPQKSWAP
Test: flow cytometry

B1: Endothelial protein C receptor (protein)
chain: SQDASDGLQRLHMLQISYFRDPYHVWYQGNASLGGHLTHVLEGPDTNTTIIQLQPLQEPESWARTQSGLQSYLLQFHGLVRLVHQERTLAFPLTIRCFLGCELPPEGSRAHVFFEVAVNGSSFVSFRPERALWQADTQVTSGVVTFTLQQLNAYNRTRYELREFLEDTCVQYVQKHISAENTKGSQTSRSYTS
modifications: fluorescently labelled APC
  Kd: 77 nM
